Measured values from patent US20230167426.

Target: T1, AcrE2 (type I-E anti-CRISPR from Pseudomonas phage JBD88a)
T1 chain: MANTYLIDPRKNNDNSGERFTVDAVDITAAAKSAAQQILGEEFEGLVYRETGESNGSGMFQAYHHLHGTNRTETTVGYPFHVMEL

B1: 6×His-tagged NmeCas9 (Neisseria meningitidis Cas9) (protein)
chain: MAAFKPNSINYILGLDIGIASVGWAMVEIDEEENPIRLIDLGVRVFERAEVPKTGDSLAMARRLARSVRRLTRRRAHRLLRTRRLLKREGVLQAANFDENGLIKSLPNTPWQLRAAALDRKLTPLEWSAVLLHLIKHRGYLSQRKNEGETADKELGALLKGVAGNAHALQTGDFRTPAELALNKFEKESGHIRNQRSDYSHTFSRKDLQAELILLFEKQKEFGNPHVSGGLKEGIETLLMTQRPALSGDAVQKMLGHCTFEPAEPKAAKNTYTAERFIWLTKLNNLRILEQGSERPLTDTERATLMDEPYRKSKLTYAQARKLLGLEDTAFFKGLRYGKDNAEASTLMEMKAYHAISRALEKEGLKDKKSPLNLSPELQDEIGTAFSLFKTDEDITGRLKDRIQPEILEALLKHISFDKFVQISLKALRRIVPLMEQGKRYDEACAEIYGDHYGKKNTEEKIYLPPIPADEIRNPVVLRALSQARKVINGVVRRYGSPARIHIETAREVGKSFKDRKEIEKRQEENRKDREKAAAKFREYFPNFVGEPKSKDILKLRLYEQQHGKCLYSGKEINLGRLNEKGYVEIDHALPFSRTWDDSFNNKVLVLGSENQNKGNQTPYEYFNGKDNSREWQEFKARVETSRFPRSKKQRILLQKFDEDGFKERNLNDTRYVNRFLCQFVADRMRLTGKGKKRVFASNGQITNLLRGFWGLRKVRAENDRHHALDAVVVACSTVAMQQKITRFVRYKEMNAFDGKTIDKETGEVLHQKTHFPQPWEFFAQEVMIRVFGKPDGKPEFEEADTLEKLRTLLAEKLSSRPEAVHEYVTPLFVSRAPNRKMSGQGHMETVKSAKRLDEGVSVLRVPLTQLKLKDLEKMVNREREPKLYEALKARLEAHKDDPAKAFAEPFYKYDKAGNRTQQVKAVRVEQVQKTGVWVRNHNGIADNATMVRVDVFEKGDKYYLVPIYSWQVAKGILPDRAVVQGKDEEDWQLIDDSFNFKFSLHPNDLVEVITKKARMFGYFASCHRGTGNINIRIHDLDHKIGKNGILEGIGVKTALSFQKYQIDELGKEIRPCRLKKRPPVR
  in vitro DNA cleavage by NmeCas9: Cleavage was unaffected by prior incubation of NmeCas9 with increasing amounts of the control, type I-specific anti-CRISPR, AcrE2
